The record followed here is patent publication US20210095036A1 (University of Pennsylvania, published 2021).

B1: 23.H1.L2m1 (scFv)
scFv: QFVLTQPPSASGTPGQRVTISCTLSSAHKTYTIDWYQQLPGTAPKLLIYVKSDGSYTKGTGVPDRFSGSSSGADRYLAISGLQSEDEADYYCGADDNGGYVFGGGTQLTVTGGGSSRSSSSGGGGSGGGGQVQLQESGPGLVKPSETLSLTCAVSGYSISRHALTWIRQPPGKGLEWIGAIDNAGTTYYASWAKSRVTISVDTSKNQFSLKLSSVTAADTAVYYCARVFYDINSGYYLDGMDLWGPGTLVTVSS
notes: pIII not in the entry; order Vλ-linker-VH; also called scFv 23
B2: CD19-Fc (Fc fusion, UniProt P15391 20-291, looked up)
chain: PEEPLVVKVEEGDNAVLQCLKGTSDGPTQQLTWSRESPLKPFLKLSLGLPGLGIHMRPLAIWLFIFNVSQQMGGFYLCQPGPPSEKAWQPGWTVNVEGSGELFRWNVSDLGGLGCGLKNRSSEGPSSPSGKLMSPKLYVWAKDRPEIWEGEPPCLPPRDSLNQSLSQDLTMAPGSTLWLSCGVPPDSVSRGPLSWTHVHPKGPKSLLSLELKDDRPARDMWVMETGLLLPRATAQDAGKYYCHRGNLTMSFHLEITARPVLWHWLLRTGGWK
notes: The words recombinant human Fc-fusions leave open whether human means the Fc or the antigen; also called recombinant human Fc-fusion of CD19 antigen; Fc-conjugated soluble CD19; not shown: human Fc
B3: CAR P4-10, the original rabbit GFRα4-directed CAR (other)
VH: QSVKESEGGLFKPTDTLTLTCTVSGFSLSRHALTWVRQAPGNGLEWIGAIDNAGTTYYASWAKSRSTITRNTDLHTVTLKMTSLTASDTATYFCARVFYDINSGYYLDGMDLWGPGTLVTVSS
VL: QFVLTQSPSVSAALGASAKLTCTLSSAHKTYTIDWYQQQQGEAPRYLMQVKSDGSYTKGTGVPDRFSGSSSGADRYLIIPSVQADDEAGYVCGADDNGGYVFGGGTQLTVT
notes: Chimeric antigen receptor on transduced human T cells, one chain in fact; also called P410bbz; P4-10 CAR
B4: P4-10 antibody (full-length rabbit IgG containing the P4-10 rabbit variable regions) (antibody, V domains shown)
VH: B3 VH
VL: B3 VL
notes: Full-length rabbit IgG, lambda light chain; also called anti-GFRα4 P4-10 antibody; rabbit P4-10
B5: 7.H2m1.L2 (scFv)
scFv: QSVLTQPPSASGTPGQRVTISCSGSSAHKTYTVNWYQQLPGTAPKLLIYVKSDGSYQRPSGVPDRFSGSKSGTSASLAISGLQSEDEADYYCGADDNGGYVFGGGTKLTVLGGGSSRSSSSGGGGSGGGGEQSVKESGGGLVQPGGSLRLSCAASGFTLSRHALTWVRQAPGKGLEWIGAIDNAGTTYYASWAKSRFTISRNTDLHTVYLQMNSLRAEDTAVYFCARVFYDINSGYYLDGMDLWGPGTLVTVSS
notes: pIII not in the entry; order Vλ-linker-VH; The printed entry has an E before QSVKE of the VH; also called scFv 7
B6: 0.410HC.410LC (scFv)
scFv: QFVLTQSPSVSAALGASAKLTCTLSSAHKTYTIDWYQQQQGEAPRYLMQVKSDGSYTKGTGVPDRFSGSSSGADRYLIIPSVQADDEAGYVCGADDNGGYVFGGGTQLTVTGGGSSRSSSSGGGGSGGGGQSVKESEGGLFKPTDTLTLTCTVSGFSLSRHALTWVRQAPGNGLEWIGAIDNAGTTYYASWAKSRSTITRNTDLHTVTLKMTSLTASDTATYFCARVFYDINSGYYLDGMDLWGPGTLVTVSS
notes: pIII not in the entry; order Vλ-linker-VH; positive control; also called original rabbit P4-10 scFv; scFv 0
B7: 3.H1m1.L3 (scFv)
scFv: QSALTQPASVSGSPGQSITISCTGTSAHKTYTVSWYQQHPGKAPKLMIYVKSDGSYNRPSGVSNRFSGSKSGNTASLTISGLQAEDEADYYCGADDNGGYVFGGGTKLTVLGGGSSRSSSSGGGGSGGGGQQSVKESGPGLVKPSETLSLTCAVSGFSLSRHALTWVRQPPGKGLEWIGAIDNAGTTYYASWAKSRVTISRNTDLHTVSLKLSSVTAADTAVYFCARVFYDINSGYYLDGMDLWGPGTLVTVSS
notes: pIII not in the entry; order Vλ-linker-VH; also called scFv 3; H1m.L3

For test [1], the target named is T1, GFRα4 isoform b (GFRα4b), Fc fusion (human).
T1 construct: the entry holds the whole fusion; also called GFR4α4b; GFRα4-Fc
The test is described as follows: phage ELISA, immobilized GFRα4b; second token of the cell. The source says: (§1) To perform these ELISAs, the GFRα4a isoform comprising a portion of GFRα4a (Asn24 -Ser245, UniProt accession #Q9GZZ7-2) was used, followed by a Factor Xa cleavage site/linker, a portion of optimized IgG1 Fc domain (Pro100-Lys330), and 6 His residues for purification. The GFRα4b isoform comprised a portion of GFRα4b (Asn24-Va1274, UniProt #Q9GZZ7-1), followed by a TEV cleavage site linker, and a portion of human IgG1 Fc domain (Asp104-Lys330).
Target sequence in this assay (chain, as listed by the source limits assumed): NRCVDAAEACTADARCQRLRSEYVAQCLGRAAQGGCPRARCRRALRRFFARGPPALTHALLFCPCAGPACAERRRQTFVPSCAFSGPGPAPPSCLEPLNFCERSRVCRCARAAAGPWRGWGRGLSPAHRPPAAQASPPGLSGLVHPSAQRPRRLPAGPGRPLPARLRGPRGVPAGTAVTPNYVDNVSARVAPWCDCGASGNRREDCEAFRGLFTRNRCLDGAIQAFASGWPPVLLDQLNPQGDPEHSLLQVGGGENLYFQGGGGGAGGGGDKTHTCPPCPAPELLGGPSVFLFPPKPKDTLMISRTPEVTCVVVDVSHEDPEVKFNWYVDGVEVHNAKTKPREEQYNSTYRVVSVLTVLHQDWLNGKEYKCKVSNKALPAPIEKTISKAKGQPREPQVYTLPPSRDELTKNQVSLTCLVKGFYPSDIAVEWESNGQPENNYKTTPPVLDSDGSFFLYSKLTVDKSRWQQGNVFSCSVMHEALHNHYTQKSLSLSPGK

The target in test [2] is T2, GFRα4 isoform a (GFRα4a), Fc fusion with 6 His (human).
T2 construct: the entry holds the whole fusion; also called GFR4α4a; immobilized GFRα4 isoform a
T2 chain: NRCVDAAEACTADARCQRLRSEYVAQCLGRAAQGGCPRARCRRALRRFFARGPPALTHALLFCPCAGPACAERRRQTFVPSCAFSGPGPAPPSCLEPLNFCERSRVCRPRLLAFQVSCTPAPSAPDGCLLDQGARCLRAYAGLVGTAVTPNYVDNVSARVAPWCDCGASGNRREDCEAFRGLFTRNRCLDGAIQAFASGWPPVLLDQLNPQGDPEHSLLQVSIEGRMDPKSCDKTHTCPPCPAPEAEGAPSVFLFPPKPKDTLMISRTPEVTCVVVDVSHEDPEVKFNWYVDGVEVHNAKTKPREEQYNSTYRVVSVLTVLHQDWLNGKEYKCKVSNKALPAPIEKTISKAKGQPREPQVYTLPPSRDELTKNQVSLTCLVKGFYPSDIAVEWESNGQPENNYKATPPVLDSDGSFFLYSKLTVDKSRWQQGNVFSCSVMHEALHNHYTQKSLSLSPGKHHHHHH
The test is described as follows: phage ELISA, immobilized GFRα4a; first token of the cell (W weak binding).
Excerpt: as §1
(In an ELISA, binding on a coated surface is turned into a signal by an enzyme label.)

Test [3] deals with T3, CAR-10 (human, UniProt P01732 183-206; Q07011 214-255; P20963 52-163).
T3 construct: domain: transmembrane domain;domain: 4-1BB domain;domain: CD3zeta domain; Chimeric antigen receptor on transduced human T cells; also called CAR10bbz; pTRPE-C10-gs-BBz
The test is described as follows: flow cytometry of CAR T cells stained with Fc-fusion antigen and anti-human Fc-specific antibodies. The method, then: (§2) To create CAR-T expressing cells, human T cells from healthy donors were activated with anti-CD3 and anti-CD28 coated paramagnetic beads (DYNABEADS® Human T-Activator CD3/CD28, Life Technologies). One day following activation, cells were transduced with lentiviral vectors encoding GFRα4-directed CARs (original rabbit P4-10 and humanized versions), a CD19-directed control CAR (FMC63(cd8)bbz), or were left non-transduced (NTD). Cells were expanded and on day 7, cells were evaluated for cell-surface expression of the CARs by flow cytometry (FACSCalibur, BD Biosciences, Franklin Lakes, N.J.). Fluorescently-labeled goat anti-rabbit antibodies detected CAR P4-10, the original rabbit GFRα4-directed CAR, and fluorescently-labeled Protein L detected the murine CD19-directed CAR (FIG. 19A, “P410” and “19bbz”, respectively). Fluorescently-labeled rabbit anti-human antibodies (“RaH”) detected CARs 10, 14, 25, and 29 (FIG. 19B). Expression of cell-surface CARs were also detected by staining with antigen using recombinant human Fc-fusions of GFRα4 or CD19 antigen followed by detection of bound antigen with fluorescently-labeled anti-human Fc-specific antibodies (FIG. 19C). Appropriately, CD19-Fc only bound to CD19-directed CARs while GFRα4-Fc bound to both rabbit P4-10 and humanized P4-10 CARs but not the CD19-directed CAR.
(In general: Flow cytometry measures light scatter and fluorescence of single cells or particles in a stream.)

In test [4] the target is T4, CAR-14 (human, UniProt P01732 183-206; Q07011 214-255; P20963 52-163).
T4 construct: domain: transmembrane domain;domain: 4-1BB domain;domain: CD3zeta domain; Chimeric antigen receptor on transduced human T cells; also called pTRPE-C14-gs-BBz
Described as above. The method, then:
as §2

The target in test [5] is T5, CAR-25 (human, UniProt P01732 183-206; Q07011 214-255; P20963 52-163).
T5 construct: domain: transmembrane domain;domain: 4-1BB domain;domain: CD3zeta domain; Chimeric antigen receptor on transduced human T cells; also called pTRPE-C25-gs-BBz
The description is as above. The method, then: as §2

The target in test [6] is T6, CAR-29 (human, UniProt P01732 183-206; Q07011 214-255; P20963 52-163).
T6 construct: domain: transmembrane domain;domain: 4-1BB domain;domain: CD3zeta domain; Chimeric antigen receptor on transduced human T cells; also called pTRPE-C29-gs-BBz
The test is described as above. On the procedure:
as §2

In test [7] the target is B2. Described as above. The method, then:
as §2

The target in test [8] is T1, GFRα4 isoform b (GFRα4b), Fc fusion. Description: flow cytometry of CAR T cells stained with Fc-fusion antigen and anti-human Fc-specific antibodies (FIG. 19C). On the procedure:
as §2

Test [9] has as its target T7, human GFRα4 isoform a (GFRα4a) on transduced cells (human, UniProt Q9GZZ7-2 21-248).
T7 construct: whole, on cells; also called Nalm6 cells expressing the GFRα4 isoform a
T7 sequence (looked up): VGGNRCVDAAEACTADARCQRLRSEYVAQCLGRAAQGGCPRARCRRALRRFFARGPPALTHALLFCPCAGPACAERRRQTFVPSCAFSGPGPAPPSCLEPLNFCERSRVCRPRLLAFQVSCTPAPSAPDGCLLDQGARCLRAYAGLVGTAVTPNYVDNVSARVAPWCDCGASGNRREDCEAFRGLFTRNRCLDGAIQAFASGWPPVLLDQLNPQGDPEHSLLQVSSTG
The test is described as follows: flow cytometry and sorting of Nalm6 cells transduced with human GFRα4a-T2A-GFP. The method, then: Cytotoxicity of target cells by GFRα4-directed CAR-T cells was evaluated using a 51Cr release-assay. Target cells comprised either Nalm6 cells (a CD19-expressing B-cell precursor leukemia cell line (ATCC® CRL-3273TM)), Nalm6 cells expressing the GFRα4 isoform a (GFRα4a) or isoform b (GFRα4b), or TT cells (a human medullary thyroid cancer cell line (ATCC® CRL-1803TM)). Nalm6 cells expressing GFRα4 proteins were produced by transduction with lentiviral vectors encoding human GFRα4a-T2A-GFP or human GFRα4b-T2A-GFP (Milone et al. (2009) Molecular Therapy., 17: 1453-1464). […] P4-10 antibody comprised a full-length rabbit IgG containing the P4-10 rabbit variable regions and was a gift of Novartis Pharmaceuticals.

For test [10], the target named is T2, GFRα4 isoform a (GFRα4a), Fc fusion …. The test is described as follows: phage ELISA, immobilized GFRα4a; first token of the cell (GFRα4b: NT).
Excerpt: as §1

Test [11] has the same target. The test is described as follows: phage ELISA, immobilized GFRα4a (FIG. 6).
Excerpt: as §1
(§3) Binding of the positive scFvs from this experiment were also screened for binding to GFRα4b (FIG. 7). […] As observed in previous ELISAs of this type with the original rabbit P4-10 expressed as an antibody fragment on phage, reactivity always appears greater against the GFRα4b isoform.

The target of test [12] is T1, GFRα4 isoform b (GFRα4b), Fc fusion. The test is described as follows: phage ELISA, immobilized GFRα4b against GFRα4a.
Excerpt: as §1, §3

T3 sequence (P01732 other isoform, or with tags, fused parts or gaps limits assumed): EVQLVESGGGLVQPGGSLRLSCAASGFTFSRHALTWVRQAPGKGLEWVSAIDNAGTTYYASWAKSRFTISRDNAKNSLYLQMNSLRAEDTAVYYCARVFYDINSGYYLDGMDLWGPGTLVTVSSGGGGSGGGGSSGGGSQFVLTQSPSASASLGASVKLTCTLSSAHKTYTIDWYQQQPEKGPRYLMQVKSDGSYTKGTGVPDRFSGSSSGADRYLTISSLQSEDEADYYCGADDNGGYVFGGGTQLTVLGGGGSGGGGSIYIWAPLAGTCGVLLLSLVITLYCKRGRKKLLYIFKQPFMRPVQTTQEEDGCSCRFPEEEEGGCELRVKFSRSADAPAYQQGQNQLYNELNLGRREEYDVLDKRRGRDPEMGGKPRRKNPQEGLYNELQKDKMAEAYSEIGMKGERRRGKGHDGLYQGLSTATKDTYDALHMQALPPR
T6 sequence (P01732 other isoform, or with tags, fused parts or gaps limits assumed): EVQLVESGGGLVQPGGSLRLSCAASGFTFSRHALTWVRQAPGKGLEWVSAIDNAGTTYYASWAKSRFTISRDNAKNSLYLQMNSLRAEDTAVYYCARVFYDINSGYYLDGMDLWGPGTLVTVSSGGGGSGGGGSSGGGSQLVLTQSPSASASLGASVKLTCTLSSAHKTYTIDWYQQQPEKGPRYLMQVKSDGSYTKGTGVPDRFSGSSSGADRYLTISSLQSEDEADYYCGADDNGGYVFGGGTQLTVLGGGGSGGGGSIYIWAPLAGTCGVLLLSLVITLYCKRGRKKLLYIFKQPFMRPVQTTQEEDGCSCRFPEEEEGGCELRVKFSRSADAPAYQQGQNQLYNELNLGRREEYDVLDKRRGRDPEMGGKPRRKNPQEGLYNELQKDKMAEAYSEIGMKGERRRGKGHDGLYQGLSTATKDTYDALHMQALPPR
T4 sequence (P01732 other isoform, or with tags, fused parts or gaps limits assumed): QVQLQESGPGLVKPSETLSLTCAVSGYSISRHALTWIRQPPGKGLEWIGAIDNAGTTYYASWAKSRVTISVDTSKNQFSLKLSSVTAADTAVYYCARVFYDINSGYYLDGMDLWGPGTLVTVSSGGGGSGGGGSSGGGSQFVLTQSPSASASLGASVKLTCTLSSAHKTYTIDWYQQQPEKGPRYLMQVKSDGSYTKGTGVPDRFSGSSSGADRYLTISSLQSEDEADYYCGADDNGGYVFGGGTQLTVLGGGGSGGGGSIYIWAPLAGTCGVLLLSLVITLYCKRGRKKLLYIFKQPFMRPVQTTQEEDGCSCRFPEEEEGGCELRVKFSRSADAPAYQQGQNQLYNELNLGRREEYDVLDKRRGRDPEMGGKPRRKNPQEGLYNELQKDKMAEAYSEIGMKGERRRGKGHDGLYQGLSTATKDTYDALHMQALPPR
T5 sequence (P01732 other isoform, or with tags, fused parts or gaps limits assumed): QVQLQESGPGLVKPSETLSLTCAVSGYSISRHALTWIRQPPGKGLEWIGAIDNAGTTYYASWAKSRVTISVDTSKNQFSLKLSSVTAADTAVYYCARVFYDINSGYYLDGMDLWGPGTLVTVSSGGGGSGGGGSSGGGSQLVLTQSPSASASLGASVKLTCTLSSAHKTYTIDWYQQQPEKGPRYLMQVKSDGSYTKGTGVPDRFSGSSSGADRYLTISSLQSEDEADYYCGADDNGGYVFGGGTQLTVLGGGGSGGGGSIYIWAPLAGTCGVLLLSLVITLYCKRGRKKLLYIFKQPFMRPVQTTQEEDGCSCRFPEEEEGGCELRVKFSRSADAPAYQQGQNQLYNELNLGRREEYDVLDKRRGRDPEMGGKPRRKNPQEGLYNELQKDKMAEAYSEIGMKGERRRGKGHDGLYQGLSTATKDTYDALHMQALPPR

For B1, the binding result in [1] and in [2] was “binds” in each case.

In the case of B2, the binding result in test [3], in [4], in [5] and in [6] was “no binding” each time.

Take B3: the binding result in test [7] was “no binding”; in test [8] it was “binds”.

B4: the binding result in test [9] is “binds”.

For the molecule B5, in test [10], the binding result is given as “no binding”.

On to B6, for which the binding result in test [11] and in [12] was “binds” each time.

With B7, in test [10], the binding result is given as “no binding”.
